System: PAR1
Experiment: PI hydrolysis in hippocampal slices
Type: cell-based, mouse
Excerpt: PAR1 is a seven transmembrane G-protein coupled receptor that stimulates G-alpha-q to initiate phosphatidyl inositol (PI) hydrolysis. To ensure that PAR1 is functional in regions of the brain that are subject to ischemic damage in the mouse transient focal ischemia model, we tested the ability of several activators of PAR1 to initiate PI hydrolysis (Chung et al., 1997) in the hippocampus and striatum.
Since tPA activates plasminogen to form plasmin, we tested whether exogenously applied tPA could activate endogenous plasminogen in brain slices to form plasmin and activate PAR1.

[1] = wild type hippocampus / hippocampal slices

B1: tPA: tissue plasminogen activator; activates plasminogen to form plasmin; thrombolytic agent (protein, UniProt P00750 36-562, looked up)
Tissue-type plasminogen …: SYQVICRDEKTQMIYQQHQSWLRPVLRSNRVEYCWCNSGRAQCHSVPVKSCSEPRCFNGGTCQQALYFSDFVCQCPEGFAGKCCEIDTRATCYEDQGISYRGTWSTAESGAECTNWNSSALAQKPYSGRRPDAIRLGLGNHNYCRNPDRDSKPWCYVFKAGKYSSEFCSTPACSEGNSDCYFGNGSAYRGTHSLTESGASCLPWNSMILIGKVYTAQNPSAQALGLGKHNYCRNPDGDAKPWCHVLKNRRLTWEYCDVPSCSTCGLRQYSQPQFRIKGGLFADIASHPWQAAIFAKHRRSPGERFLCGGILISSCWILSAAHCFQERFPPHHLTVILGRTYRVVPGEEEQKFEVEKYIVHKEFDDDTYDNDIALLQLKSDSSRCAQESSVVRTVCLPPADLQLPDWTECELSGYGKHEALSPFYSERLKEAHVRLYPSSRCTSQHLLNRTVTDNMLCAGDTRSGGPQANLHDACQGDSGGPLVCLNDGRMTLVGIISWGLGCGQKDVPGVYTKVTNYLDWIRDNMRP
In the case of B1, the PI hydrolysis (plasminogen-deficient mice) is reported as “did not increase PI hydrolysis” and the PI hydrolysis [1] is reported as “significantly increased PI hydrolysis”.

B2: plasmin: serine protease involved in blood clotting that can activate PAR1 (protein, UniProt P00747 20-580; P00747 581-810, looked up)
Plasmin heavy chain A: EPLDDYVNTQGASLFSVTKKQLGAGSIEECAAKCEEDEEFTCRAFQYHSKEQQCVIMAENRKSSIIIRMRDVVLFEKKVYLSECKTGNGKNYRGTMSKTKNGITCQKWSSTSPHRPRFSPATHPSEGLEENYCRNPDNDPQGPWCYTTDPEKRYDYCDILECEEECMHCSGENYDGKISKTMSGLECQAWDSQSPHAHGYIPSKFPNKNLKKNYCRNPDRELRPWCFTTDPNKRWELCDIPRCTTPPPSSGPTYQCLKGTGENYRGNVAVTVSGHTCQHWSAQTPHTHNRTPENFPCKNLDENYCRNPDGKRAPWCHTTNSQVRWEYCKIPSCDSSPVSTEQLAPTAPPELTPVVQDCYHGDGQSYRGTSSTTTTGKKCQSWSSMTPHRHQKTPENYPNAGLTMNYCRNPDADKGPWCFTTDPSVRWEYCNLKKCSGTEASVVAPPPVVLLPDVETPSEEDCMFGNGKGYRGKRATTVTGTPCQDWAAQEPHRHSIFTPETNPRAGLEKNYCRNPDGDVGGPWCYTTNPRKLYDYCDVPQCAAPSFDCGKPQVEPKKCPGR
Plasmin light chain B: VVGGCVAHPHSWPWQVSLRTRFGMHFCGGTLISPEWVLTAAHCLEKSPRPSSYKVILGAHQEVNLEPHVQEIEVSRLFLEPTRKDIALLKLSSPAVITDKVIPACLPSPNYVVADRTECFITGWGETQGTFGAGLLKEAQLPVIENKVCNRYEFLNGRVQSTELCAGHLAGGTDSCQGDSGGPLVCFEKDKYILQGVTSWGLGCARPNKPGVYVRVSRFVTWIEGVMRNN
modifications: plasmin
B2 was tested, and the PI hydrolysis [1] was “increased PI hydrolysis”.

B3: alpha-2-antiplasmin: plasmin inhibitor (protein, UniProt P08697 40-491, looked up)
Alpha-2-antiplasmin: NQEQVSPLTLLKLGNQEPGGQTALKSPPGVCSRDPTPEQTHRLARAMMAFTADLFSLVAQTSTCPNLILSPLSVALALSHLALGAQNHTLQRLQQVLHAGSGPCLPHLLSRLCQDLGPGAFRLAARMYLQKGFPIKEDFLEQSEQLFGAKPVSLTGKQEDDLANINQWVKEATEGKIQEFLSGLPEDTVLLLLNAIHFQGFWRNKFDPSLTQRDSFHLDEQFTVPVEMMQARTYPLRWFLLEQPEIQVAHFPFKNNMSFVVLVPTHFEWNVSQVLANLSWDTLHPPLVWERPTKVRLPKLYLKHQMDLVATLSQLGLQELFQAPDLRGISEQSLVVSGVQHQSTLELSEVGVEAAAATSIAMSRMSLSSFSVNRPFLFFIFEDTTGLPLFVGSVRNPNPSAPRELKEQQDSPGNKDFLQSLKGFPRGDKLFGPDLKLVPPMEEDYPQFGSPK
B3 was tested, and the “inhibition of tPA-induced increase in PI hydrolysis” value (wild type hippocampal slices) was “inhibited the tPA-induced increase in PI hydrolysis”.

— US20080125498A1, “TREATMENT OF NEURODEGENERATIVE DISEASES AND CONDITIONS USING PAR1 ANTAGONISTS” (priority 2001, published 2008)
